The values below come from publication PMC5442325.

For assay [1], the target named is Deinococcus radiodurans RecA K83R mutant protein (Deinococcus radiodurans) (UniProt P42443).
The target in assay [2] is Deinococcus radiodurans RecA protein (wild type) (Deinococcus radiodurans) (UniProt P42443).

B1: Deinococcus radiodurans RecN protein (wild type) (natural protein)
chain: MTRKARTPKAAPVPEAVAVVEPPPPDAAPTGPRLSRLEIRNLATITQLELELGGGFCAFTGETGAGKSIIVDALGLLLGGRANHDLIRSGEKELLVTGFWGDGDESEADSASRRLSSAGRGAARLSGEVVSVRELQEWAQGRLTIHWQHSAVSLLSPANQRGLLDRRVTKEAQAYAAAHAAWREAVSRLERLQASQRERARQIDLLAFQVQEISEVSPDPGEEEGLNTELSRLSNLHTIAQAAAGGVELLSDGDLNAAGLIGEAVRALNAGAKYDETVMQLQNELRAALESVQAIAGELRDVAEGSAADPEALDRVEARLSALSKLKNKYGPTLEDVVEFGAQAAEELAGLEEDERDAGSLQADVDALHAELLKVGQALDAAREREAEPLVDSLLAVIRELGMPHARMEFALSALAEPAAYGLSDVLLRFSANPGEELGPLSDVASGGELSRVMLAVSTVLGADTPSVVFDEVDAGIGGAAAIAVAEQLSRLADTRQVLVVTHLAQIAARAHHHYKVEKQVEDGRTVSHVRLLTGDERLEEIARMLSGNTSEAALEHARELLAG
As for B1, in assay [1], the steady-state RecN ATP hydrolysis rate, order of addition RecA K83R+DNA then RecN (reaction 5; 2 μM RecN, 2 μM RecA K83R, 50 μM duplex DNA, buffer N) was 56.3 µM/min; the steady-state RecN ATP hydrolysis rate, order of addition RecN+DNA then RecA K83R (reaction 3; 2 μM RecN, 2 μM RecA K83R, 50 μM duplex DNA, buffer N) came to 53.4 µM/min; the steady-state RecN ATP hydrolysis rate, order of addition RecN+RecA K83R then DNA (reaction 4; 2 μM RecN, 2 μM RecA K83R, 50 μM duplex DNA, buffer N) turned out to be 47.5 µM/min. In addition, the nicked circular duplex product of RecA-mediated DNA three-strand exchange under dilute conditions (0.4 μM RecA, 500 nM RecN, 45 min) in assay [2] was greater than 3 fold.
